{"source": "patent US20050208610", "key": {"[1]": {"tested_on": "Apolipoprotein CIII purified from plasma derived from multiple human donors", "sequence (chain, as listed by the source)": "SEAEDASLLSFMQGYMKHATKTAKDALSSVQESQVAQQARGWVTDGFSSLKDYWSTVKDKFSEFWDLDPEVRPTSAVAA"}, "[2]": {"tested_on": "apolipoprotein CIII fragment corresponding to amino acids 41-79 (SEQ ID NO:4), designated CR001", "sequence (chain, as listed by the source)": "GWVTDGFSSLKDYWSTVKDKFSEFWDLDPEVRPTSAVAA"}}}
{"substance": "factor Xa", "values": [{"measurement": "factor Xa activity when tested alone on the chromogenic substrate S-2765", "setting": "[1]", "value": "neither apoliproprotein CIII nor the apolipoprotein CIII fragment have any direct inhibitory effect on factor Xa activity"}, {"measurement": "factor Xa activity when tested alone on the chromogenic substrate S-2765", "setting": "[2]", "value": "neither apoliproprotein CIII nor the apolipoprotein CIII fragment have any direct inhibitory effect on factor Xa activity"}]}
